Literature values as cited in patent US12037378B2, “Variant CD58 domains and uses thereof” (NOVARTIS AG, priority 2019, dated 2024).

Biological target: T1, CD2 (Homo sapiens, UniProt P06729)
T1 sequence (P06729 25-351): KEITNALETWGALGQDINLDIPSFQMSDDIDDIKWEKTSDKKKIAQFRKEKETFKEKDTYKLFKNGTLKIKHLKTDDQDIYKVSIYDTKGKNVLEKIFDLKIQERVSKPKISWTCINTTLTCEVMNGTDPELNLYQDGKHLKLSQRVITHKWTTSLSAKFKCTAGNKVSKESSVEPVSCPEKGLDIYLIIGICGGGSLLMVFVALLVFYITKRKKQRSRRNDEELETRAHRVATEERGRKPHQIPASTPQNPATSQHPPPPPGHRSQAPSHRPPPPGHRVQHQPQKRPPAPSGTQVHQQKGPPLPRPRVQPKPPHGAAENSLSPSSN
Settings: Wang et al., 1999, Cell 97:791-803; cited from earlier work

B1: CD58-6: Amino acids 30-123 (WT) Ig-V like domain of CD58, SEQ ID NO:6 (protein, listed as Homo sapiens)
chain: SQQIYGVVYGNVTFHVPSNVPLKEVLWKKQKDKVAELENSEFRAFSSFKNRVYLDTVSGSLTIYNLTSSDEDEYEMESPNITDTMKFFLYVLES
- binding to CD2: sufficient for binding to CD2
